These results are taken from patent US8840886B2, “Method of treating cancer with DLL4 antagonist and chemotherapeutic agent” (Regeneron Pharmaceuticals, Inc., priority 2009, dated 2014).

The subject of data set [1] is human HCT116 tumor cells (CRC). In words: HCT116 colorectal xenograft tumor growth, REGN421 with 5-FU (Example 5). Format: in vivo, mouse. The following applies: REGN421 2 mg/kg sc (6 mg/kg total dose). Here is the method:
The effect of anti-Dll4 Ab (REGN421) in combination with 5-FU on tumor growth was evaluated on tumors implanted in humanized Dll4 SCID mice. Each mouse was implanted subcutaneously (sc) with 5×10^6 human HCT116 tumor cells (CRC). After the tumors were established in the mice (tumor size of ˜150 mm^3, 22 days after implantation), tumors were measured and randomized. The mice were then treated with hFc, REGN421, 5-FU or combination of REGN421 and 5-FU. A total of 30 mice were divided into 6 groups (n=5 per cohort). The first group was treated sc with hFc at 2 mg/kg; the second group was treated sc with REGN421 at 2 mg/kg; the third and fourth groups were treated ip with 5-FU at 15 and 25 mg/kg, respectively; the fifth group was treated sc with REGN421 at 2 mg/kg and ip with 5-FU at 15 mg/kg; and the sixth group was treated sc with REGN421 at 2 mg/kg and ip with 5-FU at 25 mg/kg. REGN421 was administered every 3-4 days starting on day 22 and mice received three doses total. 5-FU was administered every 3-4 days starting on day 22 and mice received three doses total.
To assess the effects of REGN421 and 5-FU as single agents or in combination, the changes in tumor size (volume) were measured, beginning three days before the initial REGN421 treatment, and then on the day of each agent treatment (days 22, 26, 29) and thereafter every 3-4 days until tumors reach ˜600 mm^3 in size. In vivo tumor size is calculated using the formula (length×width^2)/2 (FIG. 3 and Table 5).

Data set [2] is described as follows: Phase I pharmacokinetics of REGN421, single 30-min IV infusion, ELISA (Example 8). Type of data set: in vivo, human. The following applies: mean. Here is the method: REGN421 is currently being studied in a first-in-human trial. The primary objective of the study is to determine the recommended dose of REGN421 for future efficacy trials. The secondary objectives are to characterize the drug safety profile, its pharmacokinetics, immunogenicity, and pharmacodynamics, as well as preliminary evidence of efficacy. In this study, anti-hDll4 antibody REGN 421 is administered intravenously every 3 weeks to patients whose cancer has progressed on conventional therapy. The study design follows standard methodology for dose escalation and definition of dose-limiting toxicity. To date, 7 patients have been treated at 0.25 mg/kg/dose every three weeks, and 6 patients have been treated at 0.50 mg/kg/dose every three weeks. For the pharmacokinetic study, blood samples were taken at pre-dose, 0 hour, and post-dose 1, 2, 4 and 8 hours on Day 1, followed by Days 2, 3, 4, 8 and 15 of Cycle 1; and pre-dose, 0 hour on Day 1 of Cycles≧2, and post-treatment follow-up on Days 15, 30 and 60. Plasma/serum levels of REGN421 in the samples are measured by ELISA with an upper limit of quantification of 2.5 μg/mL and a lower limit of quantification of 0.039 μg/mL in the undiluted serum sample. The study is ongoing with the intent to administer higher doses, defined in the protocol as 1, 2, 4, and 7 mg/kg/dose.
The currently available data showing plasma pharmacokinetic parameters following single 30-min. Cmax: Maximum serum concentration of the drug; Tlast: Time to the last quantifiable concentration of the drug; Clast: Last quantifiable concentration of the drug; AUClast: Area under curve up to the last concentration of the drug; AUC: Total area under the curve (i.e., drug exposure); t1/2Z: Terminal half life; Vss: Volume of distribution at steady state; CL: Drug clearance rate. Values are: mean, (CV %), and [range] (a: median [range]).
Background: In an ELISA, binding on a coated surface is turned into a signal by an enzyme label.

B1: REGN421: anti-hDll4 antibody comprising HCVR/LCVR combination of SEQ ID NO:116/118 (antibody, V domains shown)
VH: QVQLVESGGGVVQPGRSLRLSCAASGFTFSSYGMHWVRQAPGKGLEWVSFLWYDGTNKNYVESVKGRFTISRDNSKNMLYLEMNSLRAEDTAVYYCARDHDFRSGYEGWFDPWGQGTLVTVSS
VL: EIVLTQSPATLSLSPGERATLSCRASQSVSSYLAWYQQKPGQAPRLLIYDASNRATGIPARFSGSGSGTDFTLTISSLEPEDFAVYYCQHRSNWPPTFGGGTKVEIK
The term AUC denotes the area under the concentration-time curve, a measure of exposure. A low value points to low exposure. Regarding B1, the TGD in data set [1] turned out to be 6 days. Also, in data set [2] (0.25 mg/kg IV, n = 7 patients), the AUC amounted to 489 µg·h/mL and the AUClast amounted to 452 µg·h/mL. For the same molecule, in data set [2] (0.5 mg/kg IV, n = 2 patients), the area under the curve (AUC) stood at 963 µg·h/mL and the AUClast was found to be 759 µg·h/mL.
